One may read the Kd as a measure of binding affinity in units of concentration. The low end stands for tighter binding, the high end for weaker binding.

Like-named read-outs stand apart in the source and are kept apart here.

Assay [1] concerns the target T1, CXCL9_HUMAN (human, UniProt Q07325 23-125).
T1 sequence: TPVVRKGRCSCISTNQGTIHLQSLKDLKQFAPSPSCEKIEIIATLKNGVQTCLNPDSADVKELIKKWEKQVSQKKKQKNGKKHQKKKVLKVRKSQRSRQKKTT
The experiment in a line: BLI. (Biolayer interferometry detects binding as a change in optical thickness at a sensor tip.)

The target of assay [2] is T2, CXCL10_HUMAN (human, UniProt P02778 22-98).
T2 sequence: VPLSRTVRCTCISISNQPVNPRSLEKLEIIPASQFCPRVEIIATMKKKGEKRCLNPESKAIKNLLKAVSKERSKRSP
The experiment in a line: BLI.

Assay [3] concerns the target T3, CXCL11_HUMAN (human, UniProt O14625 22-94).
T3 sequence: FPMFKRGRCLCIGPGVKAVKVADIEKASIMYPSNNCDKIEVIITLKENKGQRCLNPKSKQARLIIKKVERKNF
The experiment in a line: BLI.

Assay [4] addresses CXCL12_HUMAN (human, UniProt P48061 22-89). The experiment in a line: BLI.
For assay [5], the target named is T4, CXCL13_HUMAN (human, UniProt O43927 23-109).
T4 sequence: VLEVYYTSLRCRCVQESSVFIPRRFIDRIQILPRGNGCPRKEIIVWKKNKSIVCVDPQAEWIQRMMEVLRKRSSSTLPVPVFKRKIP
The experiment in a line: BLI.

In assay [6] the target is T5, CXCL14_HUMAN (human, UniProt O95715 35-111).
T5 sequence: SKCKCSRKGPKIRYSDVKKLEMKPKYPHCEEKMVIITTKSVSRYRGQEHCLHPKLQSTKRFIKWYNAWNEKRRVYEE
As to the kind of experiment: BLI.

The target of assay [7] is T6, CXCL7_HUMAN (human, UniProt P02775 59-128).
T6 sequence: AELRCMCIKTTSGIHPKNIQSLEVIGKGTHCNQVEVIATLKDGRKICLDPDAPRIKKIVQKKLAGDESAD
As to the kind of experiment: BLI [Cont.].

Assay [8] deals with T7, CXCL8_HUMAN (human, UniProt P10145 28-99).
T7 sequence: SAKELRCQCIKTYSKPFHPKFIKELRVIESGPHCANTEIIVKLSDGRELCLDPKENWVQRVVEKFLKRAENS
The experiment in a line: BLI [Cont.].

The target in assay [9] is T8, CXCL4_HUMAN (human, UniProt P02776 32-101).
T8 sequence: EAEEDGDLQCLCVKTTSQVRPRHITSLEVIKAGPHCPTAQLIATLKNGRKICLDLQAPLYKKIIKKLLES
The experiment in a line: BLI [Cont.].

Assay [10] has as its target T9, CXCL1_HUMAN (human, UniProt P09341 35-107).
T9 sequence: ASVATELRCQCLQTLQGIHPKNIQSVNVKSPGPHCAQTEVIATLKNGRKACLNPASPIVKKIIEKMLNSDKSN
The experiment in a line: yeast surface display FACS re-test.

Assay [11] deals with T10, P467_RHIPU (Rhipicephalus pulchellus, UniProt L7M8Z8 22-127).
T10 sequence: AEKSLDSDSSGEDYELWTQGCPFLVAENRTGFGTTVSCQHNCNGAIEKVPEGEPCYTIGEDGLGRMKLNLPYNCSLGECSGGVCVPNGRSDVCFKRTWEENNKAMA
The experiment in a line: BLI.

The target of assay [12] is T11, P546_AMBCA (Amblyomma cajennense, UniProt A0A023FBW7 22-118).
T11 sequence: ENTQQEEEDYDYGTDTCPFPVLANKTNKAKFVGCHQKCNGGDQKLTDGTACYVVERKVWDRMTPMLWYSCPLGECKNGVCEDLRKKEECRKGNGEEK
As to the kind of experiment: BLI.

Assay [13] deals with T12, P1180_AMBTR (Amblyomma triste, UniProt A0A023G6B6 26-116).
T12 sequence: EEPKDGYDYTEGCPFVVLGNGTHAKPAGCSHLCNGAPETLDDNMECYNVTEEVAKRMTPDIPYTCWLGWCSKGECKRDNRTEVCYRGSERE
The experiment in a line: BLI.

For assay [14], the target named is T13, P1181_AMBMA (Amblyomma maculatum, UniProt G3MIX6 26-115).
T13 sequence: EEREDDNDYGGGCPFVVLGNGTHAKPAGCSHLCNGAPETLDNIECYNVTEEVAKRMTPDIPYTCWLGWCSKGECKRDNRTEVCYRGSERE
As to the kind of experiment: BLI.

Assay [15] concerns the target T14, P1182_AMBMA (Amblyomma maculatum, UniProt G3MJ83 27-115).
T14 sequence: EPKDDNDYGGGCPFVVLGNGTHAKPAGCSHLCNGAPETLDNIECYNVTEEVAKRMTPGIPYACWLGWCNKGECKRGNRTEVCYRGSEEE
The experiment in a line: BLI.

In assay [16] the target is T15, P1183_AMBTR (Amblyomma triste, UniProt A0A023G9N9 26-115).
T15 sequence: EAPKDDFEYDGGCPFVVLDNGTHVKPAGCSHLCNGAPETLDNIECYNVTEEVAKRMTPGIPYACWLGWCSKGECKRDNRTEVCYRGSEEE
As to the kind of experiment: BLI.

Assay [17] addresses T16, P1243_AMBAM (Amblyomma americanum, UniProt A0A0C9S461 26-123).
T16 sequence: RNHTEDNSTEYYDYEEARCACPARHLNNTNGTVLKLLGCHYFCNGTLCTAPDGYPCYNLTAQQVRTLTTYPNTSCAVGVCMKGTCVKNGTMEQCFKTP
As to the kind of experiment: BLI.

Assay [18] has as its target T17, P974_AMBCA (Amblyomma cajennense, UniProt A0A023FDY8 22-118).
T17 sequence: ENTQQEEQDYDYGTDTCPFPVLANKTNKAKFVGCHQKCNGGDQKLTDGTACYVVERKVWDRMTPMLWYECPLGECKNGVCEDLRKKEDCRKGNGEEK
As to the kind of experiment: BLI.

The target of assay [19] is T18, P983_AMBCA (Amblyomma cajennense, UniProt A0A023FFB5 22-119).
T18 sequence: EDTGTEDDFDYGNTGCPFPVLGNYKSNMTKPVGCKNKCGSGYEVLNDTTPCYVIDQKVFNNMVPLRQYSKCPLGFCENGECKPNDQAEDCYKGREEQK
As to the kind of experiment: BLI.

In assay [20] the target is T19, P985_AMBPA (Amblyomma parvum, UniProt A0A023FT45 25-132).
T19 sequence: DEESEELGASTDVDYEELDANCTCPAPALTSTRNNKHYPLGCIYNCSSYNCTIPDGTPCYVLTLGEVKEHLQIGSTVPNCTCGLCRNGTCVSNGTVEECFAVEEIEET
As to the kind of experiment: BLI.

Assay [21] addresses T20, P991_AMBCA (Amblyomma cajennense, UniProt A0A023FFD0 29-136).
T20 sequence: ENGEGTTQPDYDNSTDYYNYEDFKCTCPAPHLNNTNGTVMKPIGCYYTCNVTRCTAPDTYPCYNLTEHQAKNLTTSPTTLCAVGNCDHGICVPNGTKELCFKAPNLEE
The experiment in a line: BLI.

The target of assay [22] is T16, P1243_AMBAM. The experiment in a line: BLI. This is another data set of the same source.
For assay [23], the target named is T21, CXCL6_HUMAN (human, UniProt P80162 38-114).
T21 sequence: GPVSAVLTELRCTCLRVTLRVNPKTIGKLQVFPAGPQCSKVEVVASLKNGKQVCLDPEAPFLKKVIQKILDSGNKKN
As to the kind of experiment: BLI [Cont.].

CXCL12_HUMAN, sequence (P48061 22-89 limits assumed): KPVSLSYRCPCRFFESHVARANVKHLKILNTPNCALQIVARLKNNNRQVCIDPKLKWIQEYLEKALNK

B1: P1104_IXORI (other)
chain: ESKEASASQGPGKSFKVEFCETNCTENNGVWSGCTGDCICVSVGDSKEGRCMDLGDKVIDTPVAQG
B1: the binding result in [1], in [2], in assay [3], in [6], in [7] and in assay [8] was “no binding (tested: 300 nM)” each time. For the same molecule, in assay [9], the binding result is “no binding (tested: 300 nM)”. Moreover, the Kd in assay [4] was 67.8 nM; in assay [5], 220 nM. Besides, the “% cells over threshold fluorescence” value in [10] worked out at 65%.

B2: CCL11_HUMAN (ligand)
chain: not shown
Turning to B2, the Kd turned out to be 1.4 nM in [11]; 8.7 nM in assay [12]; 33 nM in [13]; 20 nM in [14]; 28 nM in assay [15]; 8.5 nM in assay [16]. The Kd stood at 6.03 nM in assay [17]; 17 nM in assay [18]; 21 nM in assay [19]; 8 nM in [20]; 3.43 nM in assay [21].

B3: P1132_IXORI (other)
chain: LSDEDELFSVEYCGTNCTKQDTGSWTTCSGNCTCYHEDGKKVGLCLSTEYTDFTKFPKPTSEEIANARPLPKREKTLN
B3: the binding result in assay [1], in assay [4] and in [5] was “no binding (tested: 300 nM)” each time. The “% cells over threshold fluorescence” value in [10] was found to be 68%.

B4: CCL4L1_HUMAN (ligand)
chain: APMGSDPPTACCFSYTARKLPRNFVVDYYETSSLCSQPAVVFQTKRGKQVCADPSESWVQEYVYDLELN
Take B4: the Kd in [11] was 4.72 nM; in assay [12], 8.9 nM; in assay [13], 20 nM; in [14] it was 35 nM; in assay [15] it was 92 nM; in assay [16] it was 48 nM. For the same molecule, the Kd in assay [17] was determined as 35.4 nM; in assay [18], 23.2 nM; in assay [19], 2.9 nM; in assay [20] it was 21 nM; in [21], 0.827 nM; in assay [22], 35.4 nM.

B5: P1229_IXORI (other)
chain: DDEFFTVDYCGMNCTLQQDGSWTPCTQKNAECKCYHESGSSVGLCLSTAYTDFNQFGDPNNSDLDAATPRHPDASSR
As for B5, the binding result in [1], in assay [2], in assay [4], in assay [5], in assay [6] and in assay [23] was “no binding (tested: 300 nM)” throughout. In assay [10], the “% cells over threshold fluorescence” value amounted to 66%.

B6: P1077_IXORI (other)
chain: GSKQLIGPQSSTNSIKAEFCDTNCTAGTNGIWNGCSGDCFCTHVGNSTEGRCMKITGFDEYPTSEAEE
Turning to B6, the binding result in [1], in [2], in assay [4], in assay [5], in [6] and in assay [7] was “no binding (tested: 300 nM)” each time. Besides, the binding result in assay [8] and in assay [9] was “no binding (tested: 300 nM)” each time. Besides, the “% cells over threshold fluorescence” value in assay [10] amounted to 50%.

B7: P1166_IXORI (other)
chain: GPETKEDKKSDVYELFTVEYCGTNCTLLTNGRWTACTGKKGTCRCYHESGEKVGLCLSTEYTDFSEYPNPKSSEIDAAAPLPRETH
As for B7, the binding result in [1], in [4] and in assay [5] was “no binding (tested: 300 nM)” each time. For the same molecule, the “% cells over threshold fluorescence” value in assay [10] was found to be 63%.

B8: P1162_IXORI (other)
chain: LNDEELFTVDYCGTNCTQQPNGSWTTCPGNCSCYHEDGKTDGFCLSTEYTDFTQFPNLTSEEMDAATPRPE
B8: the binding result in assay [1], in assay [2], in assay [3], in [4], in assay [5] and in [6] was “no binding (tested: 300 nM)” throughout. In addition, in assay [23], the binding result was “no binding (tested: 300 nM)”. For the same molecule, the “% cells over threshold fluorescence” value in assay [10] is 72%.

Source of the values: patent publication US20240034757A1 (OXFORD UNIVERSITY INNOVATION, published 2024).
